Reference: paper PMC8431453

Target: Met receptor tyrosine kinase (human (endogenous in EHMES-1)) (UniProt P08581)
Chain of UniProt P08581 (P08581 25-1390): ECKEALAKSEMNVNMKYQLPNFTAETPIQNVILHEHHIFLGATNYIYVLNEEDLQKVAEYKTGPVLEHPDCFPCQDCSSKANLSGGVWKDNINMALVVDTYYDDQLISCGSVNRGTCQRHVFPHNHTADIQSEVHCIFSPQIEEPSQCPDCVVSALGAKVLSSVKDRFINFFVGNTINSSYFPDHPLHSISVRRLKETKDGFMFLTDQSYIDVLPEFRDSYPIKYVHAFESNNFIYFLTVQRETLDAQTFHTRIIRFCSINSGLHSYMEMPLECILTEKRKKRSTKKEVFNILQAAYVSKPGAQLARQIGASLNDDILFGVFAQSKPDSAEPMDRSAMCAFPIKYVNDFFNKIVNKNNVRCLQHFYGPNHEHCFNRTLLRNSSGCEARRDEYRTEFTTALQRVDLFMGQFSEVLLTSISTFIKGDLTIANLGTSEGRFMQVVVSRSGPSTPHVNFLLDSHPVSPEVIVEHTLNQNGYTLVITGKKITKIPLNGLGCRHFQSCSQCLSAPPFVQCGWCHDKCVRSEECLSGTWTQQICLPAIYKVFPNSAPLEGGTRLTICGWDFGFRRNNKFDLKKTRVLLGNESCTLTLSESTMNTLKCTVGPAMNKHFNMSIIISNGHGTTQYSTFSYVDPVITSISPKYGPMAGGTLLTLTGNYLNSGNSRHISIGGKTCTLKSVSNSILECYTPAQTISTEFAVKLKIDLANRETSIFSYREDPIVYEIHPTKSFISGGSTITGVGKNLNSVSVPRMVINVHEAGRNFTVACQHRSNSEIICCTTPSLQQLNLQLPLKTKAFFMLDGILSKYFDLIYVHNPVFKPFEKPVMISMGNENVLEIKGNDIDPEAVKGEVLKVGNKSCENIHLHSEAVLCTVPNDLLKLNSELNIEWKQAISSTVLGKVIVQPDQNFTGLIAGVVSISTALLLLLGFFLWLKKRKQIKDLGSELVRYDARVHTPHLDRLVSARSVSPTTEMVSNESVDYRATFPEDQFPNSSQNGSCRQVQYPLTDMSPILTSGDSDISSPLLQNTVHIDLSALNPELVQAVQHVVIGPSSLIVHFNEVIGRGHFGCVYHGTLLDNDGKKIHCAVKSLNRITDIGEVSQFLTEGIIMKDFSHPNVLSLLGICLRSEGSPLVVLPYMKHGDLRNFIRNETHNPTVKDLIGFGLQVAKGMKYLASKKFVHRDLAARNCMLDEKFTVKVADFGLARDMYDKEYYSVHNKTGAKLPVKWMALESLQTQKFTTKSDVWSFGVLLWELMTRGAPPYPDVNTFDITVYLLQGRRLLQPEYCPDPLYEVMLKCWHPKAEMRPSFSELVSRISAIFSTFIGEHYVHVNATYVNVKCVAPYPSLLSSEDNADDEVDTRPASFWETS

In the case of K144A mutant NK1 (ligand), the Met Y1234/1235 phosphorylation in EHMES-1 cells, cell-based ELISA, at 30 nM, compared with wild-type NK1 is reported as 52.2%.
Work on V140A mutant NK1 (ligand) yielded a Met Y1234/1235 phosphorylation in EHMES-1 cells, cell-based ELISA, at 30 nM, compared with wild-type NK1 of 23.8%.
With “wild-type hepatocyte growth factor (two-chain HGF) (from UniProt P14210-3 32-489) (ligand)” the Met Y1234/1235 phosphorylation in EHMES-1 cells, cell-based ELISA, compared with 30 nM wild-type NK1 (fold of 30 nM wild-type NK1) was 2.5.
In the case of N127A mutant NK1 (ligand), the Met Y1234/1235 phosphorylation in EHMES-1 cells, cell-based ELISA, at 30 nM, compared with wild-type NK1 is reported as 8.3%.
